The text below walks through data of PMC7921410, “Structure of mammalian Mediator complex reveals Tail module architecture and interaction with a conserved core” (Nature Communications, 2021).

Common to all, as to experiment: cryo-EM structure; endogenous mouse Mediator immunopurified from CH12 nuclear extract through 3×FLAG-MED19 or 3×FLAG-MED25; eluted in 50 mM HEPES pH 7.9, 100 mM KCl, 5% glycerol, 1 mM EDTA, 0.005% NP-40; map at 4.0 Å overall, focused refinement of the MED1 and knob/hook ends (6-10 Å)
What all share (settings): both partners purified

The target of one assay is T1, MED7 (mouse (Mus musculus; endogenous in CH12), UniProt Q9CZB6 1-233).
T1 construct: MED7, Mus musculus, endogenous Middle module subunit of Mediator; source: endogenous, CH12 mouse B lymphoma nuclear extract; immunopurified as part of Mediator (FLAG M2 agarose, FLAG peptide elution)
T1 sequence (looked up): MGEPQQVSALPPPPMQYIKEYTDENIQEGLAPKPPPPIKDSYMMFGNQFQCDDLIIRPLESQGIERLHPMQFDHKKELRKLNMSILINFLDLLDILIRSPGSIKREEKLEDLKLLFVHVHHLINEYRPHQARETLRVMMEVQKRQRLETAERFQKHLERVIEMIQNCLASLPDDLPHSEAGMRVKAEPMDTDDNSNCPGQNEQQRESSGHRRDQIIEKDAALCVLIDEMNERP

In the next assay the target is T2, MED1 (mouse (Mus musculus; endogenous in CH12), UniProt Q925J9 1-1575).
T2 construct: MED1, Mus musculus, endogenous Middle module subunit of Mediator; only a partial model of the folded N-terminal portion was built; Partial model only; this part of the map is at about 6-8 Å; also called Mediator subunit MED1; source: endogenous, CH12 mouse B lymphoma nuclear extract; immunopurified as part of Mediator (FLAG M2 agarose, FLAG peptide elution)
T2 sequence (Q925J9 whole entry): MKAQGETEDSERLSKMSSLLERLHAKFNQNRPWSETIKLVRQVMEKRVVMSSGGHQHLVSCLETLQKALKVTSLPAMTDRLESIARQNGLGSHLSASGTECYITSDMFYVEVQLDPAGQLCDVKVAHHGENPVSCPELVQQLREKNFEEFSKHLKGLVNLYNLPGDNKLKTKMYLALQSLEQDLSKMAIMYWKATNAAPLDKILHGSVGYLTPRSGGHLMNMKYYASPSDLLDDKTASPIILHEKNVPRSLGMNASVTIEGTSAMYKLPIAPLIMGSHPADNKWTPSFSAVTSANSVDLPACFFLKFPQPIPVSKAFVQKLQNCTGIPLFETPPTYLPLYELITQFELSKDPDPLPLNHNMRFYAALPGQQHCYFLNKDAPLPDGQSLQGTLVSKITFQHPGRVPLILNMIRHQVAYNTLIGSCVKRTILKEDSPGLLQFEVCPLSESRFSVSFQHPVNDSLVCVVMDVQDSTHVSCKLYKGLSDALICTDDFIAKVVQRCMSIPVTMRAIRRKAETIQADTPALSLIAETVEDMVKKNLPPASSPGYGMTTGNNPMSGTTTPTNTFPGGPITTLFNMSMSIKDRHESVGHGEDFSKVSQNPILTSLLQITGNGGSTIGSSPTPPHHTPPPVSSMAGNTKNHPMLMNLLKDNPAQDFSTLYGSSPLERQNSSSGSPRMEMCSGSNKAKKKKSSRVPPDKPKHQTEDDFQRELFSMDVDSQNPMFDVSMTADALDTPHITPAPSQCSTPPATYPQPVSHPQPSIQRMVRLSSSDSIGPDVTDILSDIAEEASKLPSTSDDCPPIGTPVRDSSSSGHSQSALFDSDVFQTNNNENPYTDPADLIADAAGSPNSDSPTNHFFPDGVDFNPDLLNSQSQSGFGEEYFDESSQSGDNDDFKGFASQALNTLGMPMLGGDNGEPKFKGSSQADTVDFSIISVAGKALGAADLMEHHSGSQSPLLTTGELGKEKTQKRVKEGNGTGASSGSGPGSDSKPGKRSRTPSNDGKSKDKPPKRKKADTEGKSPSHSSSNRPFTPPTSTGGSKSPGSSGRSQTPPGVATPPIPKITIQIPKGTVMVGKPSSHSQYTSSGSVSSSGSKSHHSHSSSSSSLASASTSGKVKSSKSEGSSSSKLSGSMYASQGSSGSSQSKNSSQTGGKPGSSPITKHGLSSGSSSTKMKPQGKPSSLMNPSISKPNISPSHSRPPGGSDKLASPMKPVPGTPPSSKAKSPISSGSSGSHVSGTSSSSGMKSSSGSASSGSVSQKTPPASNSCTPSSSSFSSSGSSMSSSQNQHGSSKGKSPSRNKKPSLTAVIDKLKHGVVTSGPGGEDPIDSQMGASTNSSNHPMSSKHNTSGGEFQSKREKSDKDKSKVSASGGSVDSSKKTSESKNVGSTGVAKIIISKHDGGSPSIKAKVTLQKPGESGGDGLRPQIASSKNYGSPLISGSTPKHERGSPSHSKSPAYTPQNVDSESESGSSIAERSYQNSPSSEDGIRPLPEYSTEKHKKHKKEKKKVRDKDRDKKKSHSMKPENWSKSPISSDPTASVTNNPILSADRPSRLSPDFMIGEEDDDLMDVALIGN

The next assay has as its target T3, MED4 (mouse (Mus musculus; endogenous in CH12), UniProt Q9CQA5 1-270).
T3 construct: MED4, Mus musculus, endogenous Middle module subunit of Mediator; source: endogenous, CH12 mouse B lymphoma nuclear extract; immunopurified as part of Mediator (FLAG M2 agarose, FLAG peptide elution)
T3 sequence (looked up): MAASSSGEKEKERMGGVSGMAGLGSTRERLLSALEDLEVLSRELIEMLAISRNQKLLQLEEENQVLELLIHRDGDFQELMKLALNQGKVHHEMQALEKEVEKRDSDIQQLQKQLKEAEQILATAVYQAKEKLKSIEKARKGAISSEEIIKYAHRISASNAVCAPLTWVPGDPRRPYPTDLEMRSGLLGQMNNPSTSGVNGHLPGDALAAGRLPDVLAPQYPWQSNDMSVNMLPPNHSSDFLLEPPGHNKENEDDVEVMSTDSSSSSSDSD

For the next assay, the target named is T4, MED20 (mouse (Mus musculus; endogenous in CH12), UniProt Q9R0X0 1-212).
T4 construct: MED20, Mus musculus, endogenous Head module subunit of Mediator; source: endogenous, CH12 mouse B lymphoma nuclear extract; immunopurified as part of Mediator (FLAG M2 agarose, FLAG peptide elution)
T4 sequence (looked up): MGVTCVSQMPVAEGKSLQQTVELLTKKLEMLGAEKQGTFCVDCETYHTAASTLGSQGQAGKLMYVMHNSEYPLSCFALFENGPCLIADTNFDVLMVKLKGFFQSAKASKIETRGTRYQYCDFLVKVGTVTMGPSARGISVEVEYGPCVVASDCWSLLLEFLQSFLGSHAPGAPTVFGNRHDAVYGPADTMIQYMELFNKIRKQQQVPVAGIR

In the next assay the target is T5, MED27 (mouse (Mus musculus; endogenous in CH12), UniProt Q9DB40 1-311).
T5 construct: MED27, Mus musculus, endogenous upper Tail subunit of Mediator; source: endogenous, CH12 mouse B lymphoma nuclear extract; immunopurified as part of Mediator (FLAG M2 agarose, FLAG peptide elution)
T5 sequence (looked up): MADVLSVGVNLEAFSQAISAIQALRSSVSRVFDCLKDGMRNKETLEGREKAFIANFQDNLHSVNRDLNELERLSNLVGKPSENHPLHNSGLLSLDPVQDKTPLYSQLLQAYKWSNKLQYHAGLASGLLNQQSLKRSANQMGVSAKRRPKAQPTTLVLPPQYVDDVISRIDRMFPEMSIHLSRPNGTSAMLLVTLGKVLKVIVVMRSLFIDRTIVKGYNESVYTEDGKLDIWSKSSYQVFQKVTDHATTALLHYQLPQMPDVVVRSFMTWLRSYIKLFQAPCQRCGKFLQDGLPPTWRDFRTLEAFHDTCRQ

The next assay deals with T6, MED17 (mouse (Mus musculus; endogenous in CH12), UniProt Q8VCD5 1-649).
T6 construct: MED17, Mus musculus, endogenous Head module scaffold subunit of Mediator; source: endogenous, CH12 mouse B lymphoma nuclear extract; immunopurified as part of Mediator (FLAG M2 agarose, FLAG peptide elution)
T6 sequence (looked up): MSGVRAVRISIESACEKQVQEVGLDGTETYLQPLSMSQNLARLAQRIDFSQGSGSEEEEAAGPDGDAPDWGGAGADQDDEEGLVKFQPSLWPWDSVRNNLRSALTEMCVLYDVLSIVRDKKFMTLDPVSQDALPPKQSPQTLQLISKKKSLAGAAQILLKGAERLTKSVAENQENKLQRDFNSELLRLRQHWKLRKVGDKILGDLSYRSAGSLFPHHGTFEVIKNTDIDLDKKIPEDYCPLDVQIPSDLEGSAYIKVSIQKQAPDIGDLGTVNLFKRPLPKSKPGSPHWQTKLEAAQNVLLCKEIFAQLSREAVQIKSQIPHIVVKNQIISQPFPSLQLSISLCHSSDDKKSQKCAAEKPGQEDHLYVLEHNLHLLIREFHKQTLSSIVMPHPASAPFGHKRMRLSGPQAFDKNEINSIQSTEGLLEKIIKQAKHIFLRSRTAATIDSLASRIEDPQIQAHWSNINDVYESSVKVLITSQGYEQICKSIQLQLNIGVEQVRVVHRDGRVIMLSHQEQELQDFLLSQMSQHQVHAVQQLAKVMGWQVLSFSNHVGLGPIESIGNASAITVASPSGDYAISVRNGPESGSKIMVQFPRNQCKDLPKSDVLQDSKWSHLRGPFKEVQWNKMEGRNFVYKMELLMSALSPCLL

B1: MED21 (natural protein, mouse (Mus musculus; endogenous in CH12), UniProt Q9CQ39 1-144, looked up)
chain: MADRLTQLQDAVNSLADQFCNAIGVLQQCGPPASFSNIQTAINKDQPANPTEEYAQLFAALIARTAKDIDVLIDSLPSEESTAALQAASLYKLEEENHEAATCLEDVVYRGDMLLEKIQSALADIAQSQLKTRSVTHSHSLPDS
notes: MED21, Mus musculus, endogenous Middle module subunit of Mediator; source: endogenous, CH12 mouse B lymphoma nuclear extract; immunopurified as part of Mediator (FLAG M2 agarose, FLAG peptide elution)
For the molecule B1, the binding result with MED7 is reported as “binds”.

B2: MED9 (natural protein, mouse (Mus musculus; endogenous in CH12), UniProt Q8VCS6 1-142, looked up)
chain: MASSGVAGGRQAEDTLQPPPELLPESKPPPPPQPLPVAALPPPAAPRPQSPAGAKEENYSFLPLVHNVIKCMDKDSPDLHQDLNALKTKFQELRKLIGTMPGIHVSPEQQQQQLHSLREQVRTKNELLQKYKSLCMFEIPKD
notes: MED9, Mus musculus, endogenous Middle module subunit of Mediator; source: endogenous, CH12 mouse B lymphoma nuclear extract; immunopurified as part of Mediator (FLAG M2 agarose, FLAG peptide elution)
For the molecule B2, the binding result with MED1 and with MED4 was “binds” throughout.

B3: MED18 (natural protein, mouse (Mus musculus; endogenous in CH12), UniProt Q9CZ82 1-208, looked up)
chain: MEAPPVTMMPVTGGTINMMEYLLQGSVLDHSLESLIHRLRGLCDNMEPETFLDHEMVFLLKGQQASPFVLRARRSMDRAGAPWHLRYLGQPEMGDKNRHALVRNCVDIATSENLTDFLMEMGFRMDHEFVAKGHLFRKGIMKVVVYKIFRILVPGNTDSTEALSLSYLVELSVVAPAGQDMVSDDMRNFAEQLKPLVHLEKIDPKRLM
notes: MED18, Mus musculus, endogenous Head module subunit of Mediator; source: endogenous, CH12 mouse B lymphoma nuclear extract; immunopurified as part of Mediator (FLAG M2 agarose, FLAG peptide elution)
B3: the binding result with MED20, with MED27 and with MED17 was “binds” in each case.
